Test results taken from patent US20250346895A1, “GENETIC SEQUENCE-CARBOHYDRATE CONJUGATES FOR ENHANCED LIVER- AND KIDNEY-SPECIFIC TARGETING” (University of Connecticut, priority 2022, published 2025).

Experiments:
[1] = system: HepG2 cells; assay: In vitro cellular uptake in HepG2 cells; assay type: cell-based
[2] = Kidney-targeted delivery of full-length (22mer) anti-miR-21 PNA: biodistribution (IVIS, flow cytometry); assay type: in vivo, C57BL/6J mice
Description: FIG. 9 illustrates that LBAAc ligand efficiently delivered a 22mer long PNA sequence to the kidney. […] PNA 6 contains succinic acid (SA) at 5′ end for conjugation with LBA-lysine conjugate. Lysine (K) was added on the 3′ end of the PNA followed by fluorescent probe 5-carboxytetramethylrhodamine (TAM) of each PNA. 000 represents the trioxo-miniPEG linker. […] Radiant Efficiency for TAMRA fluorescence in the kidneys of C57BL6/J mice. Results are represented as mean of n=2 with standard error mean as the error bars.
Full-length (22mer) PNA oligomers were designed and synthesized namely PNA 5, PNA 6 and LBAAc conjugate (PNA 6-LBAAc) to target miR-21 (FIG. 9A). PNA 6 was conjugated with LBAAc as described in FIG. 2A.
Biodistribution evaluation of PNA 5 and PNA 6-LBAAc in C57BL/6J mice at a low subcutaneous dose of 1.5 mg/kg (1/10 molar equiv of short PNA 1&2): A lower dose biodistribution was chosen for a comprehensive validation of LBAAc for kidney targeting. […] (FIG. 9D). Results were confirmed by flow cytometry analysis of kidney cells. The kidney cells obtained after RBC lysis were fixed with 4% PFA and analyzed for TAMRA fluorescence. The histogram plots representing the TAMRA fluorescence from 4 and 24 h samples confirmed the elimination of PNA 5 and accumulation of PNA 6-LBAAc in the kidney cells (FIG. 9C). […] Possibly the Tmax for kidney accumulation of PNA 6-LBAAc is >4 h. Decisively, the higher concentration of PNA 6-LBAAc in the kidney at 24 h compared to 4 h time point against PNA 5 confirmed the kidney targeting and potential of the LBAAc ligand.

Row | Compound | cellular uptake [1] | organ distribution of TAMRA fluorescence signal (IVIS) ([2]; 1.5 mg/kg subcutaneous) | overall pharmacokinetics / biodistribution ([2]; 1.5 mg/kg subcutaneous) | increase in kidney retention compared to unconjugated PNA 5 ([2]; 1.5 mg/kg subcutaneous, 24 h) [fold] | kidney concentration at 24 h ([2]; 1.5 mg/kg subcutaneous, 24 h) | TAMRA fluorescence in kidney cells (flow cytometry) ([2]; 4 and 24 h samples) | Tmax ([2]; mouse, in vivo, sc, 1.5 mg/kg subcutaneous, read-out: Tmax for kidney accumulation) [h]
1 | O=C(O)[C@H](O)[C@@H](O)[C@H](O[C@@H]1O[C@H](CO)[C@H](O)[C@H](O)[C@H]1O)[C@H](O)CO [LBA, lactobionic acid] | ASGPR mediated cellular uptake |  |  |  |  |  | 
2 | CC(=O)OC[C@H]1O[C@@H](O[C@@H]([C@H](OC(C)=O)[C@@H](OC(C)=O)C(=O)NCCCC[C@H](NC(=O)[C@H](OC(C)=O)[C@@H](OC(C)=O)[C@H](O[C@@H]2O[C@H](COC(C)=O)[C@H](OC(C)=O)[C@H](OC(C)=O)[C@H]2OC(C)=O)[C@@H](COC(C)=O)OC(C)=O)C(=O)NCCCCCCNC(=O)CCC(=O)NCCOCCOCCOCC(=O)NCCN(CC(=O)NCCN(CC(=O)NCCN(CC(=O)NCCN(CC(=O)NCCN(CC(=O)NCCN(CC(=O)NCCN(CC(=O)NCCN(CC(=O)NCCN(CC(=O)NCCN(CC(=O)NCCN(CC(=O)NCCN(CC(=O)NCCN(CC(=O)NCCN(CC(=O)NCCN(CC(=O)NCCN(CC(=O)NCCN(CC(=O)NCCN(CC(=O)NCCN(CC(=O)NCCN(CC(=O)NCCN(CC(=O)NCCN(CC(=O)N[C@@H](CCCCNC(=O)COCCOCCOCCNC(=O)c2ccc(-c3c4ccc(=[N+](C)C)cc-4oc4cc(N(C)C)ccc34)c(C(=O)[O-])c2)C(N)=O)C(=O)Cn2cnc3c(N)ncnc32)C(=O)Cn2cc(C)c(=O)[nH]c2=O)C(=O)Cn2ccc(N)nc2=O)C(=O)Cn2cnc3c(=O)[nH]c(N)nc32)C(=O)Cn2cnc3c(N)ncnc32)C(=O)Cn2cnc3c(N)ncnc32)C(=O)Cn2cc(C)c(=O)[nH]c2=O)C(=O)Cn2cnc3c(N)ncnc32)C(=O)Cn2cnc3c(=O)[nH]c(N)nc32)C(=O)Cn2cc(C)c(=O)[nH]c2=O)C(=O)Cn2ccc(N)nc2=O)C(=O)Cn2cc(C)c(=O)[nH]c2=O)C(=O)Cn2cnc3c(=O)[nH]c(N)nc32)C(=O)Cn2cnc3c(N)ncnc32)C(=O)Cn2ccc(N)nc2=O)C(=O)Cn2cc(C)c(=O)[nH]c2=O)C(=O)Cn2cnc3c(N)ncnc32)C(=O)Cn2ccc(N)nc2=O)C(=O)Cn2cnc3c(N)ncnc32)C(=O)Cn2cnc3c(N)ncnc32)C(=O)Cn2ccc(N)nc2=O)C(=O)Cn2cc(C)c(=O)[nH]c2=O)[C@@H](COC(C)=O)OC(C)=O)[C@H](OC(C)=O)[C@@H](OC(C)=O)[C@H]1OC(C)=O [PNA 6-LBAAc] |  | limited to the kidney only | slower biodistribution | 4 | concentration increased in the kidney | accumulation | > 4
3 | tris N-acetylgalactosamine [tGalNAc, reference compound] | ASGPR mediated cellular uptake |  |  |  |  |  | 
